Assay results from the supplement of paper PMC9233669.
Fewer inactive variants are shown than the library holds.

Experiments:
[1] = system: biotinyl-Met-oxazolone; assay: self-aminoacylation, catalytic enhancement (BMO) (fold over background); higher = more active; k-Seq, kA / k0A0; sequences stand for … in GGGAAUGGAUCCACAUCUACGAAUUC…UUCACUGCAGACUUGACGAAGCUG
Summary of the method: (§1)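 Mutagenized RNA pools with a 21-nt variable region (0.43 μM) were reacted with each biotinyl-aminoacyl-oxazolone at 2–1250 μM for 90 minutes at room temperature, in 50 μL HEPES/NaCl/KCl/MgCl2/CaCl2 buffer containing 5% acetonitrile at pH 6.9–7.0. RNA captured on streptavidin was quantified by triplicate qPCR and by Illumina sequencing. The fraction reacted for each sequence was fit to a pseudo-first-order model with bootstrapping, and catalytic enhancement is the median kA divided by the uncatalyzed rate, taken as the low-activity peak of a bimodal Gaussian fit.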

[2] = system: biotinyl-Trp-oxazolone; assay: self-aminoacylation, catalytic enhancement (BWO) (fold over background); higher = more active; k-Seq, kA / k0A0; sequences stand for … in GGGAAUGGAUCCACAUCUACGAAUUC…UUCACUGCAGACUUGACGAAGCUG
Summary of the method: as §1

[3] = system: biotinyl-Ile-oxazolone; assay: self-aminoacylation, catalytic enhancement (BIO) (fold over background); higher = more active; k-Seq, kA / k0A0; sequences stand for … in GGGAAUGGAUCCACAUCUACGAAUUC…UUCACUGCAGACUUGACGAAGCUG
Summary of the method: as §1

[4] = system: biotinyl-Phe-oxazolone; assay: self-aminoacylation, catalytic enhancement (BFO) (fold over background); higher = more active; k-Seq, kA / k0A0; sequences stand for … in GGGAAUGGAUCCACAUCUACGAAUUC…UUCACUGCAGACUUGACGAAGCUG
Summary of the method: as §1

[5] = system: biotinyl-Val-oxazolone; assay: self-aminoacylation, catalytic enhancement (BVO) (fold over background); higher = more active; k-Seq, kA / k0A0; sequences stand for … in GGGAAUGGAUCCACAUCUACGAAUUC…UUCACUGCAGACUUGACGAAGCUG
Summary of the method: as §1

[6] = system: biotinyl-Leu-oxazolone; assay: self-aminoacylation, catalytic enhancement (BLO) (fold over background); higher = more active; k-Seq, kA / k0A0; sequences stand for … in GGGAAUGGAUCCACAUCUACGAAUUC…UUCACUGCAGACUUGACGAAGCUG
Summary of the method: as §1

Sequence	self-aminoacylation [1]	self-aminoacylation [2]	self-aminoacylation [3]	self-aminoacylation [4]	self-aminoacylation [5]	self-aminoacylation [6]
CAGUUUGUUAAUAGUCGCAAG [Fam3.1 aminoacylation ribozyme variant]	1.74	1.37	1.57	2.25	1.42	1.64
CAUACCCUGGUCAUCGAGUGA [Fam2.1 aminoacylation ribozyme variant]	11.3	11.7	5.75	17.6	6.04	11.8
CAUCACUUCAAGCAAUCGGUC [Fam1B.1 aminoacylation ribozyme variant]	1.09	15.6	1.17	32.7	1.2	1.47
CCAAAAUUCAAGCAAUCGGUC [Fam1B.1 aminoacylation ribozyme variant]	1.01	1.13	1.17	1.09	1.21	1.08
CCAAACUUCAAGAAAUCGGUC [Fam1B.1 aminoacylation ribozyme variant]	0.927	5.02	0.936	6.01	0.84	0.986
CCAAACUUCAAGCAAUCGGUC [Fam1B.1 aminoacylation ribozyme variant]	1.02	15.6	1.19	30.1	1.26	1.41
CCAAACUUCAAGCAUUCGGUC [Fam1B.1 aminoacylation ribozyme variant]	1.83	1.75	2.1	1.96	1.86	1.84
CCACAAUUAAAGCAAUCGGUC [Fam1B.1 aminoacylation ribozyme variant]	0.88	0.66	1.13	0.833	1.13	0.881
CCACAAUUCAAGCAAGCGGUC [Fam1B.1 aminoacylation ribozyme variant]	1.3	0.509	1.3	0.932	1.42	0.998
CCACAAUUCAAGCAAUCGGCC [Fam1B.1 aminoacylation ribozyme variant]	4.55	3.88	4.08	5.63	4.38	3.52
CCACAAUUCAAGCAAUCGUUC [Fam1B.1 aminoacylation ribozyme variant]	0.815	0.719	0.909	1.06	0.864	0.713
CCACAAUUCAAGCAAUCUGUC [Fam1B.1 aminoacylation ribozyme variant]	0.524	0.559	0.576	0.965	0.746	0.558
CCACAAUUCAAGCAAUGGGUC [Fam1B.1 aminoacylation ribozyme variant]	1.13	0.734	1.22	0.531	1.03	1.17
CCACAAUUCAAGUAAUCGGUC [Fam1B.1 aminoacylation ribozyme variant]	0.906	1.36	0.96	2.55	0.91	0.898
CCACAAUUCAUGCAAUCGGUC [Fam1B.1 aminoacylation ribozyme variant]	1.1	0.87	1.25	1.19	1.41	1.16
CCACAAUUGAAGCAAUCGGUC [Fam1B.1 aminoacylation ribozyme variant]	0.746	1.16	0.913	0.687	0.869	0.716
CCACACAACAAGCAAUCGGUC [Fam1B.1 aminoacylation ribozyme variant]	0.781	0.693	0.894	1.15	0.899	0.863
CCACACAUCAACCAAUCGGUC [Fam1B.1 aminoacylation ribozyme variant]	0.622	1.26	0.785	1.2	0.745	0.487
CCACACAUCAAGCAAUCAGUC [Fam1B.1 aminoacylation ribozyme variant]	0.664	0.575	0.82	1.22	0.708	0.708
CCACACAUCAAGCAAUCGUUC [Fam1B.1 aminoacylation ribozyme variant]	0.617	0.543	0.807	0.673	0.783	0.722
CCACACAUCAAGCAAUGGGUC [Fam1B.1 aminoacylation ribozyme variant]	0.97	0.706	1.08	1.33	1.08	0.806
CCACACAUCAAGGAAUCGGUC [Fam1B.1 aminoacylation ribozyme variant]	0.804	0.926	1.04	0.77	0.884	1.02
CCACACCUCAAGCAAUCAGUC [Fam1B.1 aminoacylation ribozyme variant]	0.804	0.558	0.843	1.26	0.856	0.6
